Residue numbers refer to the chain shown, from its start.

The target of experiment [1] is CD47 on human red blood cells (human) (UniProt Q08722). Kind of experiment: flow cytometry on human RBCs, Donor 2. For orientation: A flow cytometer gives signals particle by particle.
The target is the same in experiment [2]. Kind of experiment: flow cytometry on human RBCs, Donor 1.
The target of experiment [3] is T1, CD47 (form not stated) (UniProt Q08722 19-139, limits assumed). The experiment in a line: CD47-SIRPα blocking assay; format not stated; blocking of CD47 binding to SIRPα.
In experiment [4] the target is T2, human CD47-ECD (human, UniProt Q08722 19-139, limits assumed, N-terminal pyroglutamate (seen in the crystal structure)).
T2 construct: extracellular domain; also called recombinant CD47-ECD; CD47 ECD protein
The experiment in a line: ELISA on recombinant CD47-ECD; recombinant CD47-ECD. (ELISA stands for enzyme-linked immunosorbent assay.)

The target in experiment [5] is T3, human CD47 on Raji cells (human, UniProt Q08722 19-323).
T3 construct: whole, on cells; also called CD47+ Raji cells; CD47-bearing Raji cells
Kind of experiment: flow cytometry on Raji cells; CD47-bearing Raji cells.

Experiment [6] deals with CD47 on human platelets (human) (UniProt Q08722). Kind of experiment: flow cytometry on human whole blood, gated on CD61 positive platelets, antibody at 10 ug/mL.
Experiment [7] concerns the target T4, recombinant human CD47/mouse Fc fusion protein (Acrobiosystems) (human, UniProt Q08722 19-139).
T4 construct: extracellular domain; Bought reagent; also called dimeric CD47-ECD; not shown: Mouse Fc
The experiment in a line: ELISA, CD47/mouse Fc coated at 1 ug/ml, anti-human Fc HRP.

Experiment [8] deals with T3, human CD47 on Raji cells. The experiment in a line: flow cytometry on Raji cells.
Method: (§1) Then, the cells were washed with PBS three times, followed by incubation with APC-labeled anti-human Fc specific antibody (Invitrogen) at 4° C. for 30 minutes. Binding was measured using a FACSCanto (Becton-Dickinson).
Experiment [9] addresses T1, CD47 (form not stated). Kind of experiment: Biacore.
For experiment [10], the target named is T4, recombinant human CD47/mouse Fc fusion …. The experiment in a line: ELISA on recombinant CD47-ECD (FIG. 2b, dimeric CD47-ECD).
Method: CD47/mouse Fc fusion protein (Acrobiosystems) was coated at 1 ug/ml in PBS onto microtiter plates for 2 hours at RT. After coating of antigen the wells were blocked with PBS/0.05% Tween (PBST) with 1% BSA for 1 hour at RT. After washing of the wells with PBST, different concentrations of anti-CD47 antibodies were added to the well and incubated for 1 at RT. For detection of the binding antibodies, the HRP conjugated secondary antibodies against human Fc (Jackson Immuno Research) were added followed by the addition of fluorogenic substrates (Roche). Between all incubation steps, the wells of the plate were washed with PBST three times. Fluorescence was measured in a TECAN Spectrafluor plate reader.
Experiment [11] addresses T1, CD47 (form not stated). The experiment in a line: BiaCore (SPR); format not stated. For orientation: In SPR one partner is held on a chip, and binding of the other changes the refractive index at the surface.
The target in experiment [12] is T3, human CD47 on Raji cells. The experiment in a line: flow cytometry on Raji cells, APC anti-human Fc.
Method: as §1
The target in experiment [13] is T5, recombinant human CD47-Fc fusion protein (Acrobiosystems) (human, UniProt Q08722 19-139).
T5 construct: extracellular domain; also called recombinant CD47-Fc fusion protein; not shown: Fc
Kind of experiment: blocking ELISA, CD47-Fc coated, blocked ligand SIRPa-His at 1 ug/mL, anti-His HRP.

Experiment [14] addresses T6, Tag1-CD47 (Cisbio HTRF kit) (UniProt Q08722 19-139).
T6 construct: Kit reagent
Kind of experiment: HTRF competition: blocks Tag1-CD47 / Tag2-SIRPα interaction (Cisbio).
Method: (§2) The mixture was incubated at 25° C. for 15 minutes, and further incubated at 25° C. for 1 hour after conjugates pre-mixture was added. Then the plate sealer was removed and fluorescence data was read on a PerkinElmer Envision plate reader.

The target of experiment [15] is T5, recombinant human CD47-Fc fusion …. Kind of experiment: competition ELISA: blocks SIRPα-His binding to coated CD47-Fc.
Method: Recombinant CD47-Fc fusion protein (Acrobiosystems) was coated at 1 ug/ml in PBS onto microtiter plates for 16 hours at 4° C. […] Plates were subsequently washed three times and incubated with an HRP-conjugated anti-His secondary antibody for 1 h at RT.
The target in experiment [16] is T7, biotinylated human CD47-ECD protein (Acrobiosystems) (human, UniProt Q08722 19-139, biotinylated (site not stated)).
T7 construct: extracellular domain; Bought reagent; also called biotinylated CD47 protein; monomeric CD47-ECD
The experiment in a line: ELISA, biotinylated CD47 coated at 1 ug/mL, anti-human Fc HRP.

Experiment [17] concerns the target T3, human CD47 on Raji cells. The experiment in a line: flow cytometry on Raji cells, MFI.
For experiment [18], the target named is T6, Tag1-CD47 (Cisbio HTRF kit). The experiment in a line: HTRF CD47-SIRPa binding assay (ratio 665 nm / 615 nm), blocked ligand Tag2-SIRPa.
Method: as §2
The target in experiment [19] is T1, CD47 (form not stated). Kind of experiment: Biacore (SPR); format not stated.

Consider IgG (antibody), for which the results for the percent of cells in the binding gate in [1] and in [2] were 0.018% and 0.079%, respectively.

B1: CD47 antibody 34C5 (antibody, V domains shown)
VH: QVQLVQSGAEVKKPGSSVKVSCKASGYTFSSYYMHWVRQAPGQGLEWMGEINPNNARINFNEKFKTRVTLTVDKSTSTAYMELSSLRSEDTAVYYCTRGYYRYGAWFGYWGQGTLVTVSS
VL: DIQMTQSPSSLSASVGDRVTITCRASQDISDYLNWYQQKPGKAPKLLIYYISRLHSGVPSRFSGSGSGTDYTLTISSLQPEDFATYYCQQGHTLPWTFGGGTKVEIK
The term EC50 denotes the concentration needed to bring the measured effect to its halfway point. As to B1, the EC50 in experiment [3] worked out at 0.3 nM; in experiment [4], 0.27 nM; in [5], 0.83 nM.

B2: CD47 antibody 1F8 (antibody, human IgG1, V domains shown)
VH: KVQLVESGGGLVKPGGSLRLSCAASGFTFSNAWMNWVRQAPGKGLEWVGRIKRKTDGETTDYAAPVKGRFSISRDDSKNTLYLQMNSLKTEDTAVYYCAGSNRAFDIWGQGTMVTVSA
VL: DIVMTQSPDSLAVSLGERATINCKSSQSVLYSSNNRNYLAWYQQKPGQPPKLLINQASTRASGVPDRFSGSGSGTEFTLIISSLHAEDVAIYYCQQYYTPPLAFGGGTKLEIK
The term EC50 (read off the curve) denotes the concentration giving half of the maximal effect. The kon is a measure of how fast the partners come together. One may read the Kd as the free concentration of one partner at which half of the binding sites on the other are occupied at equilibrium, for simple one-to-one binding. Read a high Kd as lower affinity. A word on the koff: it is the rate constant with which the complex falls apart. High values mean fast dissociation, low ones slow dissociation. As a reminder, the IC50 is the concentration that gives 50% inhibition. In the case of B2, the percent of CD61+ platelets in the binding gate in experiment [6] turned out to be 0.77%. For the same molecule, the “EC50 (read off the curve)” value is around 0.006 µg/mL in experiment [7], around 0.2 µg/mL in experiment [12] and around 0.009 µg/mL in [16]. Besides, the EC50 is 2.95 nM in [8] and 0.038 nM in experiment [10]. In experiment [9], this molecule showed a kon of 375000 M⁻¹ s⁻¹. Also, the percent of cells in the binding gate in [1] stood at 0.076%; in experiment [2], 0.065%. The affinity in [11], expressed as Kd, was 2.8 nM. In [11], this molecule showed a koff of 0.00104 s⁻¹. In addition, the “IC50 (read off the curve)” value in experiment [13] is around 0.3 µg/mL. For the same molecule, the IC50 in [14] was found to be 1.6 nM; in experiment [15], 0.78 nM.

B3: CD47 antibody 13H3 (antibody, V domains shown)
VH: B2 VH with F27L, S30E, N31R
VL: B2 VL with S32A, S33G, H85Q
As for B3, the EC50 was 1.07 nM in [17], 1.06 nM in experiment [8] and 0.045 nM in experiment [10]. For the same molecule, the Kd was determined as 0.46 nM in experiment [9] and 7.81 nM in experiment [19]. Besides, the koff in experiment [9] is 0.000247 s⁻¹; in experiment [19] it was 0.00282 s⁻¹. Besides, the kon stood at 533000 M⁻¹ s⁻¹ in [9] and 361000 M⁻¹ s⁻¹ in experiment [19]. The IC50 in experiment [18] was determined as 0.36 nM; in [15], 0.2 nM.

The record behind these values is patent US20200407441A1 (I MAB BIOPHARMA US, published 2020).
